According to patent US20130022551A1 (TRUSTEES OF BOSTON UNIVERSITY, published 2013):
Values belong to the molecule of their own block, whether it stands above or below them.

How the values were obtained:
rat DEspR (rat) = rat DEspR (rat) (UniProt D3ZGZ6); assay: in vivo contrast-enhanced ultrasound of carotid arteries, pre-/post-destruction difference, isotype control microbubbles in Tg25+ rats
[1] = target: T1, human dual endothelin-1/VEGF signal peptide receptor (hDEspR) (human) (UniProt B0L3A2); assay: microbubble adherence to HUVECs, isotype control at 800× MB to cell ratio
T1 sequence: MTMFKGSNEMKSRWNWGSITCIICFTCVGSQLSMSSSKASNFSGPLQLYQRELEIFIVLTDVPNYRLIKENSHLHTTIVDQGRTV

[2] = target: T1, human dual endothelin-1/VEGF signal peptide receptor (hDEspR) (human); assay: cell-based or functional assay
[3] = target: T2, human dual endothelin-1/VEGF signal peptide receptor (hDEspR) (human, UniProt B0L3A2 1-85); assay: cell-based or functional assay
T2 sequence: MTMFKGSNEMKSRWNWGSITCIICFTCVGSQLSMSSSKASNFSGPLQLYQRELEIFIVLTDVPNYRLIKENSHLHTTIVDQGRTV

[4] = target: T3, antigenic hDEspR 9-aa peptide, NH2-terminal 9 amino acids of hDEspR (human); assay: indirect ELISA, free hDEspR 9-aa peptide coated on the plate, hybridoma supernatant at 1 ug/ml in two-fold serial dilutions (1 = 1/2 ... 12 = 1/4096), HRP anti-IgG, OD450
T3 construct: Free peptide coated directly on ELISA wells; The KLH conjugate was used only for immunisation; also called DEspR(1-9)
T3 peptide: MTMFKGSNE
Description: Monoclonal antibody characterization by ELISA and Western blot analysis. The M₁[…]₉ antigenic peptide was coated directly on wells of a microtiter plate. Appropriate dilutions of primary antibodies were incubated at 37° C. for 1 hr. The wells were then incubated with HRP labeled anti-IgG (SIGMA cat#A0168) at 1:9000 at 37° C. for 1 hr. The reactions were visualized by the addition of 3,3′5,5′-tetramethylbenzidine substrate (incubation at 37° C. for 10 min) and read spectrophotometrically at 450 nm. Western blot analysis was done as described using equal amounts of whole cell protein extract (40 μg) from Cos1 cell transfectants stably expressing hDEspR[17] and corresponding candidate monoclonal antibodies raised against hDEspR specific synthetic peptide. Immunoreactive hDEspR (10 kDa polypeptide) was detected by chemiluminescence using the ECL Western Detection kit (GE Healthcare).

- Contrast intensity signal Δ (rat DEspR (rat)): 1.9
- % of HUVECs bound [1]: 6.8%
Molecule: control isotype-targeted microbubbles (MBC)

- BRCA1 S1497 phosphorylation, % change from control (antibody microarray, Cos1-hDEspR, 30 min, 10 nM) [2]: 32 % CFC
- CDK1/2 T14/Y15 phosphorylation, % change from control [2]: 53 % CFC
- CDK1/2 Y15 phosphorylation, % change from control [2]: 281 % CFC
- ERK1/2 T202 + Y204; T185 + Y187 phosphorylation, % change from control [2]: 135 % CFC
- FAK S722 phosphorylation, % change from control [2]: 55 % CFC
- FAK S732 phosphorylation, % change from control [2]: 62 % CFC
- FAK panspecific (expression), % change from control [2]: 205 % CFC
- Met panspecific (expression), % change from control [2]: 384 % CFC
- PCNA panspecific (expression), % change from control [2]: -47 % CFC
- PKCa T638/T641 phosphorylation, % change from control [2]: 137 % CFC
- PKCe panspecific (expression), % change from control [2]: 103 % CFC
- Raf1 S259 phosphorylation, % change from control [2]: 12 % CFC
- SHP2 S576 phosphorylation, % change from control [2]: 14 % CFC
- STAT1 S727 phosphorylation, % change from control [2]: 86 % CFC
- STAT1 Y701 phosphorylation, % change from control [2]: 95 % CFC
- STAT3 S727 phosphorylation, % change from control [2]: 133 % CFC
- Shc1 (ShcA) Y349, Y350 phosphorylation, % change from control [2]: 9 % CFC
- Smad 1/5/9 S463 + S465/S465 + S467 phosphorylation, % change from control [2]: 18 % CFC
- Src Y418 phosphorylation, % change from control [2]: -11 % CFC
- Src Y529 phosphorylation, % change from control [2]: -20 % CFC
Molecule: endothelin-1 (ET1) (from UniProt P05305 53-73) (ligand)

- EC50, inhibition of MDA-MB-468 tumor cell invasiveness [3]: 3.55 nM
- EC50 for # branching points, inhibition of serum-induced HUVEC tubulogenesis [3]: 3.97 nM
- EC50 for total tube length, inhibition of serum-induced HUVEC tubulogenesis [3]: 4.34 nM
- binding result [4]: binds
B1: anti-hDEspR 7C5B2 monoclonal antibody (antibody, IgG2b, V domains shown)
VH: QVQLKESGPGLVAPSQSLSITCTVSGFSLTSYDISWIRQPPGKGLEWLGVIWTGGGTNYNSAFMSRLSISKDNSKSQVFLKMNSLQTDDTAIYYCVRDRDYDGWYFDVWGAGTTVTVSS
VL: DVLMTQTPLSLPVSLGDQASISCRSSQSIVHSNGNTYLEWYLQKPGQSPKLLIYKVSNRFSGVPDRFSGSGSGTDFTLKISRVEAEDLGVYYCFQGSHVPYTFGGGTKLEIK
notes: Tested as hybridoma supernatant and as purified antibody; also called 7C5B2 antibody; 7C5B2 anti-DEspR antibody
